{
  "source": "patent US20260226142A1",
  "binders": {"B1": {"name": "Bm28H12 (VHH)", "VHH": "QVQLVESGGSVVQAGGSLRLSCTASGRNFNSYAMGWFRRPPGEQRDFIAAIIRSTGKTTYADSDSVKGRFTISKDSSGNTVYLQMNNLKPEDTAIYYCAGGDAGPYAFGYDYWGQGTQVTVSS"}},
  "biological_target": "Cys-HLA (Staphylococcus aureus)",
  "data": [
    {"binder": "B1", "values": [
      {"measurement": "Kd", "result": 0.1, "unit": "nM"}
    ]}
  ]
}
